# According to patent US20140154256A1 (published 2014):
# Where two headings read alike, the source gives them in different places.
# T1: human CD20 on human B cell line Raji (human, UniProt P11836 1-297)
# T1 construct: whole, on cells; also called hCD20
# T1 sequence (looked up): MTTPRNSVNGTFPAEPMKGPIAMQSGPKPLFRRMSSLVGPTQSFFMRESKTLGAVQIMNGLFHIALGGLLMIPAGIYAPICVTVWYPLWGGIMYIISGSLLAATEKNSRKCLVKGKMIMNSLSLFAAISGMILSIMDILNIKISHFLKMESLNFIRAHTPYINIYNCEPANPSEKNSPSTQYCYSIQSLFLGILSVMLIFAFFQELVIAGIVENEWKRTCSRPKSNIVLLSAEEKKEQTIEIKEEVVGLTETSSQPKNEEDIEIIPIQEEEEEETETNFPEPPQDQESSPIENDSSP
# T2: human IL-12 (human, UniProt P29459 23-219; P29460 23-328)
# T2 sequence (looked up) 1: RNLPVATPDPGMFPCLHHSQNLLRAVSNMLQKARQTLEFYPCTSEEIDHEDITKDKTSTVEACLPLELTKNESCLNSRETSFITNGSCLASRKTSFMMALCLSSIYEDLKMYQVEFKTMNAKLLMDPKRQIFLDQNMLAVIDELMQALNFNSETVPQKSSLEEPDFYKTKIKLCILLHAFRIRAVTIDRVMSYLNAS
# T2 sequence (looked up) 2: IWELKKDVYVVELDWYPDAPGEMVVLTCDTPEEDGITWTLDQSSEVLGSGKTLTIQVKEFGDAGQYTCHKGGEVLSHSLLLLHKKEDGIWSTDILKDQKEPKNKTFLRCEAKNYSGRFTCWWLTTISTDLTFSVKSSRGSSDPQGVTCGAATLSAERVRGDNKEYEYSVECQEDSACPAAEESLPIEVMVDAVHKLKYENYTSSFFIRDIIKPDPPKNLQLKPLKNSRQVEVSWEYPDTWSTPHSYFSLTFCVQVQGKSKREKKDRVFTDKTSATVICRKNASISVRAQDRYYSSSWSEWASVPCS
# T3: mouse IL-1α (mouse, UniProt P01582 115-270)
# T3 sequence (looked up): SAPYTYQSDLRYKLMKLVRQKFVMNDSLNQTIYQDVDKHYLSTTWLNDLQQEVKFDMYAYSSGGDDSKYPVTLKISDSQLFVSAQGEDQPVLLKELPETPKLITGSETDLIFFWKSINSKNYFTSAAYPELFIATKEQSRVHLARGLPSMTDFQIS
# B1: murine anti-human-CD20 mAb clone 5F1 (antibody, V domains shown)
# VH: QVQLRQPGAELVKPGASVKMSCKASGYTFTSYNMHWVKQTPGQGLEWIGAIYPGNGDTSYNQKFKGKATLTADKSSSTAYMQLSSLTSEDSAVYYCARSHYGSNYVDYFDYWGQGTTLTVSS
# VL: QIVLSQSPAILSASPGEKVTMTCRASSSLSFMHWYQQKPGSSPKPWIYATSNLASGVPARFSGSGSGTSYSLTISRVEAEDAATYFCHQWSSNPLTFGAGTKLELKR
# notes: Murine mAb
# B2: anti-IL-12 mAb clone 1D4.1 (antibody, V domains shown)
# VH: EVTLRESGPALVKPTQTLTLTCTFSGFSLSKSVMGVSWIRQPPGKALEWLAHIYWDDDKYYNPSLKSRLTISKDTSKNQVVLTMTNMDPVDTATYYCARRGIRSAMDYWGQGTTVTVSS
# VL: DIVMTQSPDSLAVSLGERATINCKASQSVSNDVAWYQQKPGQPPKLLIYYASNRYTGVPDRFSGSGSGTDFTLTISSLQAEDVAVYYCQQDYNSPWTFGGGTKVEIKR
# notes: Parent anti-IL-12 mAb
# B3: anti-CD20/anti-CD3 DVD-Ig (CD20CD3DVD-Ig) (bispecific antibody, human IgG1, kappa)
# heavy: not shown
# light: QIVLSQSPAILSASPGEKVTMTCRASSSLSFMHWYQQKPGSSPKPWIYATSNLASGVPARFSGSGSGTSYSLTISRVEAEDAATYFCHQWSSNPLTFGAGTKLELKRADAAPTVSIFPPQIVLTQSPAIMSASPGEKVTMTCSASSSVSYMNWYQQKSGTSPKRWIYDTSKLASGVPAHFRGSGSGTSYSLTISGMEAEDAATYYCQQWSSNPFTFGSGTKLEINRTVAAPSVFIFPPSDEQLKSGTASVVCLLNNFYPREAKVQWKVDNALQSGNSQESVTEQDSKDSTYSLSSTLTLSKADYEKHKVYACEVTHQGLSSPVTKSFNRGEC
# notes: VCD20-linker-VCD3-constant; chimeric Ig with human constant region; also called Anti-CD20/CD3 DVD-Ig
# B4: ABT874 (fully human mAb against human IL-12p40) (antibody, V domains shown)
# VH: QVQLVESGGGVVQPGRSLRLSCAASGFTFSSYGMHWVRQAPGKGLEWVAFIRYDGSNKYYADSVKGRFTISRDNSKNTLYLQMNSLRAEDTAVYYCKTHGSHDNWGQGTMVTVSS
# VL: QSVLTQPPSVSGAPGQRVTISCSGSRSNIGSNTVKWYQQLPGTAPKLLIYYNDQRPSGVPDRFSGSKSGTSASLAITGLQAEDEADYYCQSYDRYTHPALLFGTGTKVTVLG
# notes: Fully human mAb with a Vλ
# B5: mIL-1α/β DVD-Ig (bispecific antibody, mouse IgG2a, kappa)
# heavy: EVQLQQSGPELVKPGTSVKMSCKTSGYTFTSYVMHWVKQKPGQGLEWIGYIIPYNDNTKYNEKFKGKATLTSDKSSSTAYMELSSLTSEDSAVYYCARRNEYYGSSFFDYWGQGTTLTVSSAKTTAPSVYPLAPQVILKESGPGILQPSQTLSLTCSFSGFSLSTYGTAVNWIRQPSGKGLEWLAQIGSDDRKLYNPFLKSRITLSEDTSNSQVFLKITSVDTEDSATYYCANGVMEYWGLGTSVTVSSAKTTAPSVYPLAPVCGDTTGSSVTLGCLVKGYFPEPVTLTWNSGSLSSGVHTFPAVLQSDLYTLSSSVTVTSSTWPSQSITCNVAHPASSTKVDKKIEPRGPTIKPCPPCKCPAPNLLGGPSVFIFPPKIKDVLMISLSPIVTCVVVDVSEDDPDVQISWFVNNVEVHTAQTQTHREDYNSTLRVVSALPIQHQDWMSGKEFKCKVNNKDLPAPIERTISKPKGSVRAPQVYVLPPPEEEMTKKQVTLTCMVTDFMPEDIYVEWTNNGKTELNYKNTEPVLDSDGSYFMYSKLRVEKKNWVERNSYSCSVVHEGLHNHHTTKSFSRTPGK
# light: DIQMTQSPASLSASVGETVTITCRGSGILHNYLVWYQQKQGKSPQLLVYSAKILADGVPSRFSGSGSGTQYSLKINSLQPEDFGSYYCQHFWSTPFTFGSGTKLEIKRADAAPTVSIFPPSIVMTQTPKFLLVSAGDRVTITCKASQSVNHDVAWYQQMPGQSPKLLIYFASNRYTGVPDRFTGSGYGTDFTFTISTVQAEDLAVYFCQQDYSSPYTFGGGTKLEIKRADAAPTVSIFPPSSEQLTSGGASVVCFLNNFYPKDINVKWKIDGSERQNGVLNSWTDQDSKDSTYSMSSTLTLTKDEYERHNSYTCEATHKTSTSPIVKSFNRNEC
# B6: ABT325 (fully human mAb against human IL-18) (antibody, V domains shown)
# VH: EVQLVQSGTEVKKPGESLKISCKGSGYTVTSYWIGWVRQMPGKGLEWMGFIYPGDSETRYSPTFQGQVTISADKSFNTAFLQWSSLKASDTAMYYCARVGSGWYPYTFDIWGQGTMVTVSS
# VL: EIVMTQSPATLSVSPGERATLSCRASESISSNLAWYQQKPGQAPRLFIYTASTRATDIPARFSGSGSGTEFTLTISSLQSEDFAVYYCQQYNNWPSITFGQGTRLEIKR
# notes: Fully human mAb with a Vκ
# Legend:
# [1] = target: T1, human CD20 on human B cell line Raji; test: flow cytometry staining of Raji B cells, FITC goat anti-murine IgG
# Source text: The anti-CD20/anti-CD3 DVD-Ig was generated as chimeric Ig i.e the constant region was a human constant region. For binding analysis, human T cell line Jurkat and B cell line Raji were blocked with human IgG and then stained with murine anti-hCD3 mAb OKT3, murine anti-hCD20 mAb 1F5, and anti-CD20/anti-CD3 DVD-Ig. Cells were then washed and stained with FITC-labeled goat anti-murine IgG (with no anti-hIgG cross-reactivity). Anti-CD20/CD3 DVD-Ig bound both T and B cells, whereas CD3 and CD20 mAbs bound only T or B cells, respectively. The amino acid sequence of CD20/CD3 DVD-Ig is disclosed in Table 25.
# human IL-12 [2] = target: T2, human IL-12; test: cell-based or functional assay
# human IL-12 [3] = target: T2, human IL-12; test: SPR (Biacore)
# [4] = target: T1, human CD20 on human B cell line Raji; test: preliminary cell surface binding study
# human IL-12 [5] = target: T2, human IL-12; test: cell-based or functional assay; remark: listed apart in the source
# human IL-12 [6] = target: T2, human IL-12; test: cell-based or functional assay; remark: listed apart in the source
# human IL-12 [7] = target: T2, human IL-12; test: SPR (Biacore); remark: listed apart in the source
# human IL-12 [8] = target: T2, human IL-12; test: SPR (Biacore); remark: listed apart in the source
# mouse IL-1α = target: T3, mouse IL-1α; test: cell-based or functional assay
# mouse IL-1β = mouse IL-1β (mouse, UniProt P10749 118-269); test: cell-based or functional assay
# Chain of mouse IL-1β (P10749 118-269 limits assumed): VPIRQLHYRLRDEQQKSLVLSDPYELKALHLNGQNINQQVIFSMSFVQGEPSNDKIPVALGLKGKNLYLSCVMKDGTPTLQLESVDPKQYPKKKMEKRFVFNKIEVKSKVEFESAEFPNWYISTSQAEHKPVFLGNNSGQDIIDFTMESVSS
# human IL-18 [9] = target: T4, human IL-18 (human, UniProt Q14116 37-193); test: cell-based or functional assay
# human IL-18 [10] = target: T4, human IL-18; test: cell-based or functional assay; remark: listed apart in the source
# human IL-18 [11] = target: T4, human IL-18; test: SPR (Biacore)
# human IL-18 [12] = target: T4, human IL-18; test: cell-based or functional assay; remark: listed apart in the source
# human IL-18 [13] = target: T4, human IL-18; test: SPR (Biacore); remark: listed apart in the source
# human IL-18 [14] = target: T4, human IL-18; test: SPR (Biacore); remark: listed apart in the source
binder,measurement,setting,value
B1,binding result,[1],binds
B2,"Potency (IC50, M), PBMC assay (IL-12)",human IL-12 [2],4.18e-10 M
same,Kd,human IL-12 [3],0.12 nM
B3,binding result,[4],binds
B4,"Potency (IC50), PHA-Blast Assay",human IL-12 [5],0.005 nM
same,"IC50 (M), IL-12-induced IFN-γ production by PHA blast cells (PBMC assay)",human IL-12 [6],5e-12 M
same,Kd,human IL-12 [7],0.065 nM
same,Kd,human IL-12 [8],0.0647 nM
B5,"IC50 (M), in vitro potency (assay not described)",mouse IL-1α,2e-09 M
same,"IC50 (M), in vitro potency (assay not described)",mouse IL-1β,8e-10 M
B6,"Potency (IC50, M), KG-1 bioassay (IL-18)",human IL-18 [9],6.87e-11 M
same,"Potency (IC50), KG-1 Assay",human IL-18 [10],0.3 nM
same,Kd,human IL-18 [11],0.191 nM
same,"IC50 (M), KG-1 bioassay (IFN-γ production)",human IL-18 [12],3e-10 M
same,Kd,human IL-18 [13],0.137 nM
same,Kd,human IL-18 [14],0.137 nM
